Assay results: article PMC3558487

Columns and labels:
[1] = target: Vibrio harveyi chitoporin (VhChiP), recombinant, mature trimer (Vibrio harveyi type strain 650); assay: SDS-PAGE of samples unheated or heated at up to 60°C; purified VhChiP (peak P2 of the ion exchange) unheated or heat-treated for 10 min, run on a 10% polyacrylamide gel; trimer to monomers
[2] = target: Vibrio harveyi chitoporin (VhChiP), recombinant, mature trimer (Vibrio harveyi type strain 650); assay: single-channel current recording in a planar lipid bilayer (BLM); purified VhChiP added to the cis side of a DPhPC bilayer, 1 M KCl, 20 mM HEPES pH 7.5; closure induced by higher voltage (+200 mV)

stoichiometry N [1]: 3
stoichiometry N [2]: 3
Substance: Vibrio harveyi chitoporin (VhChiP), recombinant, mature trimer (natural protein)
